T1: RebH (Lentzea aerocolonigenes, UniProt Q8KHZ8)
T1 sequence (Q8KHZ8 1-530): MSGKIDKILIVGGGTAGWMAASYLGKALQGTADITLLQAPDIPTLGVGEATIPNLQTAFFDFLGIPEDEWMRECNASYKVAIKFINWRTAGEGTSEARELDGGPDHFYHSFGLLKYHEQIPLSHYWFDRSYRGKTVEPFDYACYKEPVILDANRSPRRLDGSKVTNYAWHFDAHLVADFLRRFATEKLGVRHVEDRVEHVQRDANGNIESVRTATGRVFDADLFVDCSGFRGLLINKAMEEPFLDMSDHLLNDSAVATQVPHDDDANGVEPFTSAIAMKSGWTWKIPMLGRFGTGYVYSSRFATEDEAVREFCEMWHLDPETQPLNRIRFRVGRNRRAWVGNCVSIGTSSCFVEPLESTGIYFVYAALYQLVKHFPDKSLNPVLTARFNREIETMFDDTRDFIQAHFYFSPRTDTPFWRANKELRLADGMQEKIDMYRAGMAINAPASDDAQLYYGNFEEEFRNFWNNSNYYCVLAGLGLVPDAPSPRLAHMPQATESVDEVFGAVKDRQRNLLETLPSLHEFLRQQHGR


Key:
[1] = target: PyrH (Streptomyces rugosporus, UniProt A4D0H5); assay: LC-MS of 5-chlorotryptophan in transformed C. roseus hairy roots; assay type: cell-based; conditions: with RebF reductase, chloride; in planta
Sequence of PyrH (A4D0H5 whole entry): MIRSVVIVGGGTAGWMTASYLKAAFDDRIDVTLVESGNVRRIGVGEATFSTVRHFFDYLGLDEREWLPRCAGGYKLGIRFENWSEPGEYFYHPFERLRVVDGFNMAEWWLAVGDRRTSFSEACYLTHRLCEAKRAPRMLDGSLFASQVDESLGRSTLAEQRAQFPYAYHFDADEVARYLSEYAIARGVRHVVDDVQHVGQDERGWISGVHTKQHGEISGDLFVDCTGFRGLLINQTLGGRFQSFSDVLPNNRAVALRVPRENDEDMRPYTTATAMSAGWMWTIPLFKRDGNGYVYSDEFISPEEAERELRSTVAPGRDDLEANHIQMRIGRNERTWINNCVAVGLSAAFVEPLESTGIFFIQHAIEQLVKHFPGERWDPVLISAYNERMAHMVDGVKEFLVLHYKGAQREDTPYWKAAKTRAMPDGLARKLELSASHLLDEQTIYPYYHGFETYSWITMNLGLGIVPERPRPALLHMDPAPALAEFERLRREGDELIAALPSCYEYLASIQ

[2] = target: T1, RebH; assay: LC-MS of 7-chlorotryptophan in transformed C. roseus hairy roots; assay type: cell-based; conditions: with RebF reductase, chloride; in planta
[3] = substrate: N[C@@H](Cc1c[nH]c2ccccc12)C(=O)O; assay: in vitro steady-state kinetics of decarboxylation; assay type: biochemical, Catharanthus roseus
[4] = substrate: N[C@@H](Cc1c[nH]c2c(Cl)cccc12)C(=O)O; assay: in vitro steady-state kinetics of decarboxylation; assay type: biochemical, Catharanthus roseus
[5] = substrate: N[C@@H](Cc1c[nH]c2ccc(Cl)cc12)C(=O)O; assay: in vitro steady-state kinetics of decarboxylation; assay type: biochemical, Catharanthus roseus

Molecule	LC-MS of 5-chlorotryptophan in transformed C. roseus hairy roots [1]	LC-MS of 7-chlorotryptophan in transformed C. roseus hairy roots [2]	Km [3] [µM]	kcat [3] [s⁻¹]	Km [4] [µM]	kcat [4] [s⁻¹]	Km [5] [µM]	kcat [5] [s⁻¹]
N[C@@H](Cc1c[nH]c2ccccc12)C(=O)O [compound 1, tryptophan]	we observed accumulation of 5-chlorotryptophan 1b	formation of chlorinated tryptophan 1a and 1b and chlorinated alkaloids in both the RebH/RebF	–	–	–	–	–	–
tryptophan decarboxylase (C. roseus) (Catharanthus roseus) (protein) MGSIDSTNVAMSNSPVGEFKPLEAEEFRKQAHRMVDFIADYYKNVETYPVLSEVEPGYLRKRIPETAPYLPEPLDDIMKDIQKDIIPGMTNWMSPNFYAFFPATVSSAAFLGEMLSTALNSVGFTWVSSPAATELEMIVMDWLAQILKLPKSFMFSGTGGGVIQNTTSESILCTIIAARERALEKLGPDSIGKLVCYGSDQTHTMFPKTCKLAGIYPNNIRLIPTTVETDFGISPQVLRKMVEDDVAAGYVPLFLCATLGTTSTTATDPVDSLSEIANEFGIWIHVDAAYAGSACICPEFRHYLDGIERVDSLSLSPHKWLLAYLDCTCLWVKQPHLLLRALTTNPEYLKNKQSDLDKVVDFKNWQIATGRKFRSLKLWLILRSYGVVNLQSHIRSDVAMGKMFEEWVRSDSRFEIVVPRNFSLVCFRLKPDVSSLHVEEVNKKLLDMLNSTGRVYMTHTIVGGIYMLRLAVGSSLTEEHHVRRVWDLIQKLTDDLLKEA	–	–	51.7 ± 9.2	0.085 ± 0.0017	499 ± 74	0.0267 ± 0.00067	538 ± 48	0.0417 ± 0.0013
